From paper PMC5506079, “Neodymium-140 DOTA-LM3: Evaluation of an In Vivo Generator for PET with a Non-Internalizing Vector” (Frontiers in Medicine, 2017)

Experiments:
[1] = test system: NCI-H727 tumor bearing mice; experiment: Small animal PET/CT tissue quantification, pre-mortem (16 h) and post-mortem; format: in vivo, female NMRI nude mice; settings: for Tumor post-mortem PET signal: mean ± spread over tumors; for Tumor partial volume corrected PET signal (PVC-PET): post-mortem PET divided by S(V); for Kidney PM PET tissue signal / L. tumor PM PET tissue signal / Liver PM PET tissue signal / Lung PM PET tissue signal / Muscle PM PET tissue signal / Pancreas PM PET tissue signal / R. tumor PM PET tissue signal: post mortem scan after 16 h, 3.3–4.3 MBq i.v.
Description: (§1) NCI-H727 lung carcinoid cancer cells (ATCC CRL-5815, LGC Standards) were cultured in RPMI-1640 media supplemented with 10% fetal bovine serum and 1% penicillin-streptomycin (Invitrogen) at 37° C and 5% CO2. Cells in their exponential growth phase and at 80–90% confluence were harvested by trypsinization and resuspended in 1:1 media and matrigel (BD Biosciences) at 5 × 10^7 cells/mL. Subcutaneous tumors were established in female NMRI nude mice (Taconic, Denmark) by inoculation of 5 × 10^6 cells in 100 µL on each flank above the hind limbs in the subcutaneous space. All animal experiments were performed under a protocol approved by the National Animal Experiments Inspectorate of Denmark.
Longitudinal small animal PET/CT imaging (Inveon Multimodality PET/CT scanner, Siemens) was performed with NCI-H727 tumor bearing mice injected intravenously with 3.3–4.3 MBq ^140Nd-DOTA-LM3 (n = 8) or 2.7–3.1 MBq ^140Nd-chloride (n = 3) in 150 µL. Mice were anesthetized with sevoflurane (Abbott Laboratories) during injection and PET/CT imaging. PET data was acquired for 600 s in list mode at 1, 3, and 16 h after injection. The mice were sacrificed after the 16 h time-point and a PET acquisition was performed 2 h post-mortem. Images were reconstructed using a 3D maximum a posteriori algorithm with CT based attenuation correction. CT images were acquired with the following settings: 300 projections, 65 kV, 500 µA, and 400 ms exposure, and reconstructed with an isotropic voxel size of 105 µm. Image analysis was performed using the Inveon Software (Siemens). Region of interests (ROIs) were drawn manually over the tumor regions and other organs based on the CT images and the uptake of ^140Nd-DOTA-LM3 or ^140Nd-chloride quantified as % injected dose per gram tissue (%ID/g).
Throughout the text we have used a unit, %IS/g, to denote the “percent of injected annihilation signal per gram tissue”. This is in contrast to the common unit, %ID/g (percent of injected dose per gram), which is typically used to report relative radiotracer concentrations. We made the decision to change units for two reasons: first because the EC-delayed positron is not guaranteed to be emitted at the same location as the initial EC decay; and second, because the abnormally high energy of positrons emitted in the decay of ^140Pr leads to large partial volume effects which alter the relationship between the decay distribution and the annihilation distribution.
Using the partial volume correction factor S(V), as a function of ROI volume, the PET quantifications from the manuscript can be rescaled. The results are shown in table S1 compared to the ex vivo biodistribution data. […] A more complete approach to the partial volume correction may lead to better agreement for the PET and well-counter data.

[2] = test system: NCI-H727 tumor bearing mice; experiment: Conventional ex vivo biodistribution (gamma counter); format: in vivo, female NMRI nude mice; settings: for Tumor ex-vivo well counter: 16 h after injection
Description: as §1
Conventional ex vivo biodistribution was performed after the post-mortem scan. Tumors and organs were resected, weighted and the radioactivity was counted in a gamma counter (Wizard^2, PerkinElmer).

[3] = HPLC verification of de-labeling of ^140Pr from DOTA-LM3; format: physicochemical; settings: reverse-phase C-18 radio-HPLC trace vs LSC of fractions
Description: Samples of ^140Nd-DOTA-LM3 were injected onto a reverse-phase C-18 (Luna 3uC18(2)(n) 100 A 100 × 2 mm 3 μm, Phenomenex) column at a flow rate of 0.5 mL/min starting from 0% acetonitrile in water, and reaching 100% over a 15 min gradient. Elution was monitored with a radio detector. The entire effluent was collected in 1 min intervals (500 µL each) and quantified 4 days after collection by liquid scintillation counting on a HIDEX 300 SL spectrometer.

1,4,7,10- tetraazacyclododecane, 1,4,7- tri acetic acid, 10- acetamide N - p-Cl-Phecyclo(d-Cys-Tyr-d-4-amino-Phe(carbamoyl)-Lys-Thr-Cys)d-Tyr-NH2 (disulfide) [^140Nd-DOTA-LM3, ^140Nd reacted with the somatostatin analogue DOTA-LM3, a non-internalizing vector; the printed name is that of unlabeled DOTA-LM3]
Tumor post-mortem PET signal ([1]; 2.5MBq/nmol): 0.19 ±0.07 %IS/g
Tumor partial volume corrected PET signal (PVC-PET) ([1]; 2.5MBq/nmol): 1.5 ±0.4 %ID/g
Tumor post-mortem PET signal ([1]; 5MBq/nmol): 0.40 ±0.15 %IS/g
Tumor partial volume corrected PET signal (PVC-PET) ([1]; 5MBq/nmol): 3.0 ±1.0 %ID/g
Fraction of in situ produced ^140Pr washed out of the pancreas before decay ([1]; higher specific activity (5 MBq/nmol), pre- vs post-mortem PET at 16 h, n = 4, mean ± SD): 56 ± 7%
Kidney PM PET tissue signal ([1]; subject 1, 5 MBq/nmol): 1.41 %IS/g
L. tumor PM PET tissue signal ([1]; subject 1, 5 MBq/nmol): 0.38 %IS/g
Liver PM PET tissue signal ([1]; subject 1, 5 MBq/nmol): 0.21 %IS/g
Lung PM PET tissue signal ([1]; subject 1, 5 MBq/nmol): 0.06 %IS/g
Muscle PM PET tissue signal ([1]; subject 1, 5 MBq/nmol): 0.08 %IS/g
Pancreas PM PET tissue signal ([1]; subject 1, 5 MBq/nmol): 1.79 %IS/g
R. tumor PM PET tissue signal ([1]; subject 1, 5 MBq/nmol): 0.29 %IS/g
Kidney PM PET tissue signal ([1]; subject 2, 5 MBq/nmol): 1.26 %IS/g
L. tumor PM PET tissue signal ([1]; subject 2, 5 MBq/nmol): 0.35 %IS/g
Liver PM PET tissue signal ([1]; subject 2, 5 MBq/nmol): 0.17 %IS/g
Lung PM PET tissue signal ([1]; subject 2, 5 MBq/nmol): 0.08 %IS/g
Muscle PM PET tissue signal ([1]; subject 2, 5 MBq/nmol): 0.07 %IS/g
Pancreas PM PET tissue signal ([1]; subject 2, 5 MBq/nmol): 2.12 %IS/g
R. tumor PM PET tissue signal ([1]; subject 2, 5 MBq/nmol): 0.41 %IS/g
Kidney PM PET tissue signal ([1]; subject 3, 5 MBq/nmol): 1.76 %IS/g
L. tumor PM PET tissue signal ([1]; subject 3, 5 MBq/nmol): 0.68 %IS/g
Liver PM PET tissue signal ([1]; subject 3, 5 MBq/nmol): 0.25 %IS/g
Lung PM PET tissue signal ([1]; subject 3, 5 MBq/nmol): 0.08 %IS/g
Muscle PM PET tissue signal ([1]; subject 3, 5 MBq/nmol): 0.06 %IS/g
Pancreas PM PET tissue signal ([1]; subject 3, 5 MBq/nmol): 2.56 %IS/g
R. tumor PM PET tissue signal ([1]; subject 3, 5 MBq/nmol): 0.44 %IS/g
Kidney PM PET tissue signal ([1]; subject 4, 5 MBq/nmol): 1.15 %IS/g
L. tumor PM PET tissue signal ([1]; subject 4, 5 MBq/nmol): 0.24 %IS/g
Liver PM PET tissue signal ([1]; subject 4, 5 MBq/nmol): 0.12 %IS/g
Lung PM PET tissue signal ([1]; subject 4, 5 MBq/nmol): 0.04 %IS/g
Muscle PM PET tissue signal ([1]; subject 4, 5 MBq/nmol): 0.06 %IS/g
Pancreas PM PET tissue signal ([1]; subject 4, 5 MBq/nmol): 2.26 %IS/g
R. tumor PM PET tissue signal ([1]; subject 4, 5 MBq/nmol): 0.18 %IS/g
Kidney PM PET tissue signal ([1]; subject 5, 2.5 MBq/nmol): 1.12 %IS/g
L. tumor PM PET tissue signal ([1]; subject 5, 2.5 MBq/nmol): 0.29 %IS/g
Liver PM PET tissue signal ([1]; subject 5, 2.5 MBq/nmol): 0.20 %IS/g
Muscle PM PET tissue signal ([1]; subject 5, 2.5 MBq/nmol): 0.04 %IS/g
Pancreas PM PET tissue signal ([1]; subject 5, 2.5 MBq/nmol): 0.76 %IS/g
R. tumor PM PET tissue signal ([1]; subject 5, 2.5 MBq/nmol): 0.28 %IS/g
Kidney PM PET tissue signal ([1]; subject 6, 2.5 MBq/nmol): 1.35 %IS/g
L. tumor PM PET tissue signal ([1]; subject 6, 2.5 MBq/nmol): 0.17 %IS/g
Liver PM PET tissue signal ([1]; subject 6, 2.5 MBq/nmol): 0.23 %IS/g
Lung PM PET tissue signal ([1]; subject 6, 2.5 MBq/nmol): 0.08 %IS/g
Muscle PM PET tissue signal ([1]; subject 6, 2.5 MBq/nmol): 0.03 %IS/g
Pancreas PM PET tissue signal ([1]; subject 6, 2.5 MBq/nmol): 1.71 %IS/g
R. tumor PM PET tissue signal ([1]; subject 6, 2.5 MBq/nmol): 0.07 %IS/g
Kidney PM PET tissue signal ([1]; subject 7, 2.5 MBq/nmol): 0.97 %IS/g
L. tumor PM PET tissue signal ([1]; subject 7, 2.5 MBq/nmol): 0.18 %IS/g
Liver PM PET tissue signal ([1]; subject 7, 2.5 MBq/nmol): 0.17 %IS/g
Lung PM PET tissue signal ([1]; subject 7, 2.5 MBq/nmol): 0.08 %IS/g
Muscle PM PET tissue signal ([1]; subject 7, 2.5 MBq/nmol): 0.03 %IS/g
Pancreas PM PET tissue signal ([1]; subject 7, 2.5 MBq/nmol): 0.88 %IS/g
R. tumor PM PET tissue signal ([1]; subject 7, 2.5 MBq/nmol): 0.19 %IS/g
Kidney PM PET tissue signal ([1]; subject 8, 2.5 MBq/nmol): 1.18 %IS/g
L. tumor PM PET tissue signal ([1]; subject 8, 2.5 MBq/nmol): 0.18 %IS/g
Liver PM PET tissue signal ([1]; subject 8, 2.5 MBq/nmol): 0.15 %IS/g
Lung PM PET tissue signal ([1]; subject 8, 2.5 MBq/nmol): 0.04 %IS/g
Muscle PM PET tissue signal ([1]; subject 8, 2.5 MBq/nmol): 0.03 %IS/g
Pancreas PM PET tissue signal ([1]; subject 8, 2.5 MBq/nmol): 0.82 %IS/g
R. tumor PM PET tissue signal ([1]; subject 8, 2.5 MBq/nmol): 0.18 %IS/g
Tumor ex-vivo well counter ([2]; 2.5MBq/nmol): 3.7 ±1.3 %ID/g
Tumor ex-vivo well counter ([2]; 5MBq/nmol): 6.3 ±2.3 %ID/g
Liver tissue accumulation, ex vivo biodistribution ([2]; 16 h after i.v. injection, gamma counter): 3 %ID/g
Pancreas tissue accumulation, ex vivo biodistribution ([2]; 16 h after i.v. injection, high specific activity (5.0 MBq/nmol, 0.5 nmol injected), n = 4, gamma counter): 13 % ID/g
Efficiency of release of ^140Pr from DOTA-LM3 after ^140Nd decay [3]: > 95%
